From the supplement of paper PMC9170038

Test system: MS2 coat protein
Assay: apparent KD of MS2 coat protein; designed switch direction (-1 OFF switch, 1 ON switch): 1; higher = weaker reporter binding
Outline: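 Designed RNA switches were transcribed on Illumina chips by stalled E. coli RNA polymerase and titrated with SNAP-549-labelled MS2 coat protein from 0.7 or 1.5 nM, doubling to 3 µM. Step length ran from 0.8–1.5 h at the lowest concentration to 10–20 min at the highest. The apparent KD is the median over clusters for each design, from curve-fitted normalised cluster fluorescence.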

[1] = Eterna round: R95, input ligand: FMN 200 uM
[2] = Eterna round: R95, input ligand: microRNA oligo, concentration not stated
[3] = Eterna round: R95, input ligand: none
[4] = input ligand: microRNA oligo, concentration not stated

Row | Sequence | apparent KD of MS2 coat protein [1] [nM] | apparent KD of MS2 coat protein [2] [nM] | apparent KD of MS2 coat protein [3] [nM] | apparent KD of MS2 coat protein (input ligand: FMN 200 uM) [nM] | apparent KD of MS2 coat protein [4] [nM] | apparent KD of MS2 coat protein (input ligand: none) [nM]
1 | UCUUGGUUUUUGCUCGUUUUUUGUGUUGAACAUGAGGAUCACCCAUGUAUUAUACGGUCCGGUUUAGUAGUGGUCCA [JMF 78] (puzzle: Sensor for hsa-mir-208a) | 86.1 | 83 | 113 |  |  | 
2 | UCUUGGUUUUUGCUCGUUUUUUGUGUUGAACAUGAGGAUCACCCAUGUAUUGUACAGUCCAAUUUAAUAAUGGUCCA [JMF 4] (puzzle: Sensor for hsa-mir-208a) | 34.2 | 27.9 | 41.6 |  |  | 
3 | UCUUGGUUUUUGCUCGUUUUUUGUGUUGAACAUGAGGAUCACCCAUGUAUUGUACGGUCCAAUUUAAUAGUGGUCCG [JMF 24] (puzzle: Sensor for hsa-mir-208a) | 25.5 | 15.3 | 28 |  |  | 
4 | UCUUGGUUUUUGCUCGUUUUUUGUGUUGAACAUGAGGAUCACCCAUGUAUUGUACGGUCCGAUUUAAUAGUGGUCCG [JMF 19] (puzzle: Sensor for hsa-mir-208a) | 24.4 | 14.8 | 27 |  |  | 
5 | UCUUGGUUUUUGCUCGUUUUUUGUGUUGAACAUGAGGAUCACCCAUGUAUUGUACGGUCCGGUUUGAUAGUGGUCCG [JMF 15] (puzzle: Sensor for hsa-mir-208a) | 26.3 | 16.2 | 31.3 |  |  | 
6 | UGAACCGUCACAGGAUAUCAUGCGAAAAUUGCGUGAGAAGGGUGGAUGUUGUGUUCAAAGAUGUACAUGAGGAUCACCCAUGUU [SameState NG1 #47] (Eterna round: R96, puzzle: Same State NG 1) |  |  |  | 61 | 85.7 | 170
7 | UGAACCGUCACAGGAUAUCAUGCGAAAAUUGCGUGAGAAGGGUGGAUGUUGUGUUCAAAGUUAUACAUGAGGAUCACCCAUGUU [SameState NG1 #46] (Eterna round: R96, puzzle: Same State NG 1) |  |  |  | 29.8 | 45.8 | 65.5
8 | UGAAUAGUCACAGGAUAUCAUGCGAAAAUUGCGUGAGAAGGGUGGAUGUUGUGCUCAAAGUGCUACAUGAGGAUCACCCAUGUU [SameState NG1 #42] (Eterna round: R96, puzzle: Same State NG 1) |  |  |  | 337 | 234 | 187
9 | UGAAUAGUUACAGGAUAUCAUGCGAAAAUUGCGUGAGAAGGGUGGGUGUUGUGCGCAAAGUGCUACAUGAGGAUCACCCAUGUU [SameState NG1 #39] (Eterna round: R96, puzzle: Same State NG 1) |  |  |  | 278 | 23.1 | 277
10 | UGAAUGAUGAUAGGAUAUACAUGAGGAAUCCUCGUAGAAGGAUCAUGACAUGAGGAUCACCCAUGUAGCGCUCCGUAGAGCGCA [JL SSNG1 1.20] (Eterna round: R96, puzzle: Same State NG 1) |  |  |  | 561 | 30.7 | 151
11 | UGACACACGGCAGGAUAUCGAUAGCAAAGCUAUCGAGAAGGGCCUCAUGUCGUGGAAACGUGACAUGAGGAUCACCCAUGUCGC [Omei SS(NG)1 Cv12] (Eterna round: R96, puzzle: Same State NG 1) |  |  |  | 72 | 12.6 | 26.6
12 | UGACACACGGCAGGAUAUCGAUUCCAAAGGAAUCGAGAAGGGCCUCAUGUCGUGGAAACGUGACAUGAGGAUCACCCAUGUCGC [Omei SS(NG)1 Cv16] (Eterna round: R96, puzzle: Same State NG 1) |  |  |  | 65 | 3.72 | 64.2
13 | UGCUAGUGGGUAGGAUAUUUAGGAUAUGGGAAAGACUAAGUCUGUAGGUCACCUAACCCAGAAGGAGAGAAGGACCCUUCAGCU [pwkr ssNG2 2FMN + F9.28] (Eterna round: R96, puzzle: Same State NG 2) |  |  |  | 1660 | 13.9 | 38.9
14 | UGGAUCUAGGCUUGCCUGGGUCCAUGUUGACAUGAGGAUCACCCAUGUGUAUUUUUUAAGCUUUUUGUUUGUCAACU [JL A Humble Attempt mod 9] (puzzle: Sensor for hsa-mir-208a) | 28.3 | 12.5 | 29.3 |  |  | 
15 | UGGCUCAGACGAGGAUAUAUGUGGUCACAUGAGGAUCACCCAUGUCUCGAGCUUCGGCUCGAGGCAUAGAAGGCGUCUGAGCCU [SSNG2/5-A3] (Eterna round: R96, puzzle: Same State NG 2) |  |  |  | 200 | 7.4 | 148
16 | UGGCUCAGACUAGGAUAUAUGUGGUCACAUGAGGAUCACCCAUGUCUCGAGCUUCGGCUCGAGGCAUAGAAGGAGUCUGAGCCU [SSNG2/5-D3] (Eterna round: R96, puzzle: Same State NG 2) |  |  |  | 249 | 15.3 | 59.9
17 | UGGCUCAGACUAGGAUAUGAUCAUGGCGCUUCGGCGCAUACAUGAGGAUCACCCAUGUAAAGUGAUCAGAAGGAGUCUGAGCCU [SSNG2/7-C3] (Eterna round: R96, puzzle: Same State NG 2) |  |  |  | 14.2 | 10.6 | 19.7
18 | UGGCUCAGAGCAGGAUAUAUGUGAUCACAUGAGGAUCACCCAUGUCUCGAGCUUCGGCUCGAGACAUAGAAGGGCUCUGAGCCA [SSNG2/3-B2] (Eterna round: R96, puzzle: Same State NG 2) |  |  |  | 23.3 | 21.8 | 22.5
19 | UGGCUCAGAGCAGGAUAUAUGUGGUCACAUGAGGAUCACCCAUGUCUCGAGCUUCGGCUCGAGGCAUAGAAGGGCUCUGAGCCU [SSNG2/5-B3] (Eterna round: R96, puzzle: Same State NG 2) |  |  |  | 704 | 21.4 | 85.9
20 | UGGCUGGUGCUAGGAUAUGCAUGAGGCAUCCUCGUAGAAGGAGCACGACAUGAGGAUCACCCAUGUAGCCGUCCGUAGACGGCU [salish99_SSNG1_r04_010] (Eterna round: R96, puzzle: Same State NG 1) |  |  |  | 673 | 348 | 1060
